Residue numbers refer to the chain shown, from its start. One block for each binder: values may come before it.
Columns and labels:
[1] = molecular target: T1, Human PSMA ECD-AFH (TSC033), recombinant dimeric PSMA ECD (human, UniProt Q04609 44-750); test: SPR (Biacore T200), scFv-Fc captured on anti-human IgG, dimeric PSMA ECD as analyte, 1:1 fit
T1 construct: SEC-purified dimer; also called HuPSMA-AFH; Avi-His-Human PSMA ECD
Protocol: Mouse anti-human IgG (GE, BR-1008-39) at 25 μg/ml in 10 mM sodium acetate pH 5.0 was immobilized at a density of ˜2,000-4,000 response units (RU) onto each flow cell of a CM5 research-grade sensor chip (GE) by standard amine coupling chemistry. Each anti-PSMA protein at approximately 40 nM in dPBS with 0.2% BSA buffer was captured in a flow cell with the immobilized anti-human IgG at a flow rate of […] for up to 30 seconds, leaving one flow cell surface unmodified as the reference. Using a multi-cycle kinetics mode, a buffer blank and […] different concentrations of ECD ranging from 1 nM to 243 nM were sequentially injected through each flow cell at 30 μL/min with association times varying from 300-600 seconds and dissociation times varying from 600-1200 seconds. Regeneration was achieved by injection of 3 M MgCl₂ at a flow rate of 30 μL/min for up to 40 seconds followed by dPBS with 0.2% BSA buffer stabilization for 1 min.
Sensorgrams obtained from kinetic SPR measurements were analyzed using the double subtraction method. The signal from the reference flow cell was subtracted from the analyte binding response obtained from flow cells with captured ligands. The buffer blank response was then subtracted from analyte binding responses and the final double-referenced data were analyzed with Biacore T200 Evaluation software (2.0, GE), globally fitting data to derive kinetic parameters. All sensorgrams were fitted using a simple one-to-one binding model.

[2] = molecular target: T2, Full-length cynomolgus monkey PSMA (TSC308), on cells (cynomolgus monkey, UniProt Q04609 1-750 (human entry)); test: cell binding on CHOK1SV/cynoPSMA transfectants, MSD electrochemiluminescence (ECL), SULFO-TAG goat anti-human IgG
T2 construct: also called cyno PSMA; CHOK1SV/cynoPSMA
T2 chain: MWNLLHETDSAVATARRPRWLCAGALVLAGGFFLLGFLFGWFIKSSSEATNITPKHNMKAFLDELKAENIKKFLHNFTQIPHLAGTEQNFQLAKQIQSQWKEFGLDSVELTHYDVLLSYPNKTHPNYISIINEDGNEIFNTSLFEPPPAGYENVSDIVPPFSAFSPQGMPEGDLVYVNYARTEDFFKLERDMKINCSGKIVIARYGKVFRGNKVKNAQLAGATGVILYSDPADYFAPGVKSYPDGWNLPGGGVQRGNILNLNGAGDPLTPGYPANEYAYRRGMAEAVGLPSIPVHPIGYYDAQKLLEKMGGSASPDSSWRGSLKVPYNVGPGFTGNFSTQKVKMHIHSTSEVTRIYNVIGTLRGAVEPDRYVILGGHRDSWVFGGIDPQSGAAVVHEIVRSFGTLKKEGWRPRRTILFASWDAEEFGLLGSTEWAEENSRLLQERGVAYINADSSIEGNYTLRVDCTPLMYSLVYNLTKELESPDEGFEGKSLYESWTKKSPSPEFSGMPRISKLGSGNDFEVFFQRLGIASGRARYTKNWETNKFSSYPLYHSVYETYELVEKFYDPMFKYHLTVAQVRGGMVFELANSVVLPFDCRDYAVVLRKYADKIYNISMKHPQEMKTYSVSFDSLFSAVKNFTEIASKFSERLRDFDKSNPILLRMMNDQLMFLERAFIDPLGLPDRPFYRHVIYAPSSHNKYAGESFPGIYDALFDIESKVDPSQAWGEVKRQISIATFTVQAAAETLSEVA
Protocol: (§1) To measure the relative binding activity of humanized PSMA-binding domain variants, constructs were tested in cell binding assays on CHOK1SV cells transfected with human or cynomolgus PSMA. The generation of CHOK1SV/huPSMA cells was described earlier; CHOK1SV/cynoPSMA cells were generated using the same method. Bivalent PSMA-binding domains variants in scFv-Fc format (constructs PSMA01019, PSMA01020, PSMA01021, PSMA01023, PSMA01024 and PSMA01025) were tested in these assays.
(§2) Binding studies on CHOK1SV transfectants were performed in live cell-based ELISA using electrochemiluminescence (Meso Scale Discovery). CHOK1SV cells were washed and seeded at 50,000 cells/well in 1× Hank's Balanced Salt Solution (HBSS) on 96-well Multi-Array High Bind plates (Meso Scale Discovery) and incubated at 37° C. for one hour. Following a blocking step in PBS buffer with 20% FBS, serial dilutions of PSMA-binding constructs (from 0.002 to 100 nM) were added in PBS buffer with 10% FBS and incubated at room temperature for one hour. Plates were washed with PBS and the specific binding levels were detected by SULFO TAG-labeled goat anti-human IgG antibody (Meso Scale Discovery #R32AJ). Following an hour incubation and wash steps, 150 μL/well surfactant free 1× Read Buffer T were added and samples were analyzed on MSD Sector Imager (Meso Scale Discovery). Resulting electrochemiluminescence (ECL) values versus concentrations were plotted and nonlinear regression analysis to determine EC50 values was performed in GraphPad Prism 7® graphing and statistics software.

[3] = molecular target: T3, Full-length Human PSMA (TSC435), on cells (human, UniProt Q04609 1-750); test: cell binding on CHOK1SV/humanPSMA transfectants, MSD electrochemiluminescence (ECL), SULFO-TAG goat anti-human IgG
T3 construct: also called CHOK1SV/huPSMA; PSMA on C4-2B, 22RV1, LNCaP, MDA-PCa-2b cells
Protocol: as §1, §2

T1 sequence (Q04609 other isoform, or with tags, fused parts or gaps): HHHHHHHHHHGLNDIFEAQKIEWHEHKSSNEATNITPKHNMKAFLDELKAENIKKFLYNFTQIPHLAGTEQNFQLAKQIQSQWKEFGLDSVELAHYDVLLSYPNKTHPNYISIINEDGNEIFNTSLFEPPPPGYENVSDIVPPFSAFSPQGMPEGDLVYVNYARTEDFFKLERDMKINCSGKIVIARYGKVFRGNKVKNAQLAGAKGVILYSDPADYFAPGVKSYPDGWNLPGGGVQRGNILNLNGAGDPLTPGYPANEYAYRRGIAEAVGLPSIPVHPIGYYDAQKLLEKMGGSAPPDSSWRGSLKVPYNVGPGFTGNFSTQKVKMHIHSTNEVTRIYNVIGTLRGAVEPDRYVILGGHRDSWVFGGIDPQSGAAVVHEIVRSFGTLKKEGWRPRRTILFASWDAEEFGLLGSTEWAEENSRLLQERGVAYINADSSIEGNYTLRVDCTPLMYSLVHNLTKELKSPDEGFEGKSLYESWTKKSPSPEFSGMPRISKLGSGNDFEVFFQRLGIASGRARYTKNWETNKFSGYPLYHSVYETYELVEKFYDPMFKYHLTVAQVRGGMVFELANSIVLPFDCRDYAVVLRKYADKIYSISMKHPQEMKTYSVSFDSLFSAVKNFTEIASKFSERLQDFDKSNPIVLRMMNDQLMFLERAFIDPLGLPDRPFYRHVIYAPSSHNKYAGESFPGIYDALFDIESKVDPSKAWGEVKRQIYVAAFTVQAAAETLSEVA

Kd [1]: 271 nM | koff [1]: 0.011 s⁻¹ | kon [1]: 40000 M⁻¹ s⁻¹ | EC50 [2]: 10 nM | EC50 [3]: 11 nM
B1: PSMA01025 Anti-PSMA scFv-Fc (Fc fusion)
chain: DIQMTQSPSTLSASVGDRVTITCRASKSISKYLAWYQQKPGKAPKLLIHSGSSLESGVPSRFSGSGSGTEFTLTISSLQPDDFATYYCQQHIEYPWTFGQGTKVEIKGGGGSGGGGSGGGGSGGGGSQVQLVQSGAEVKKPGASVKVSCKASGYTFTDYYMHWVRQAPGQGLEWMGIFNPYNDYTSYAQKFQGRVTMTRDTSTSTVYMELSSLRSEDTAVYYCARSDGYYDAMDYWGQGTTVTVSSSEPKSSDKTHTCPPCPAPEAAGAPSVFLFPPKPKDTLMISRTPEVTCVVVDVSHEDPEVKFNWYVDGVEVHNAKTKPREEQYNSTYRVVSVLTVLHQDWLNGKEYKCAVSNKALPAPIEKTISKAKGQPREPQVYTLPPSRDELTKNQVSLTCLVKGFYPSDIAVEWESNGQPENNYKTTPPVLDSDGSFFLYSKLTVDKSRWQQGNVFSCSVMHEALHNHYTQKSLSLSPGK
notes: Monospecific, bivalent scFv-Fc, VL-VH

Kd [1]: 15 nM | koff [1]: 0.00019 s⁻¹ | kon [1]: 13000 M⁻¹ s⁻¹ | EC50 [2]: 8 nM | EC50 [3]: 4 nM
B2: PSMA01019 Anti-PSMA scFv-Fc (Fc fusion)
chain: DVQITQSPSTLSASVGDRVTITCRASKSISKYLAWYQQKPGKAPKLLIHSGSSLESGVPSRFSGSGSGTEFTLTISSLQPDDFATYYCQQHIEYPWTFGQGTKVEIKGGGGSGGGGSGGGGSGGGGSEVQLLESGGGLVQPGGSLRLSCAASGYTFTDYYIHWVRQAPGKGLEWIGSFNPYNDYTSYADSVKGRATLSVDKSKNTAYLQMNSLRAEDTAVYYCARSDGYYDAMDYWGQGTLVTVSSSEPKSSDKTHTCPPCPAPEAAGAPSVFLFPPKPKDTLMISRTPEVTCVVVDVSHEDPEVKFNWYVDGVEVHNAKTKPREEQYNSTYRVVSVLTVLHQDWLNGKEYKCAVSNKALPAPIEKTISKAKGQPREPQVYTLPPSRDELTKNQVSLTCLVKGFYPSDIAVEWESNGQPENNYKTTPPVLDSDGSFFLYSKLTVDKSRWQQGNVFSCSVMHEALHNHYTQKSLSLSPGK
notes: as for B1

Kd [1]: 16 nM | koff [1]: 0.00019 s⁻¹ | kon [1]: 12000 M⁻¹ s⁻¹ | EC50 [2]: 8 nM | EC50 [3]: 4 nM
B3: PSMA01020 Anti-PSMA scFv-Fc (Fc fusion)
chain: B2 chain with V2I, I4M
notes: as for B1

From patent publication US20240301086A1 (APTEVO RESEARCH AND DEVELOPMENT, published 2024)
